The values below come from PMC9020740.

Assay [1] addresses Canine parvovirus nonstructural protein 2 (NS2), made in infection (canine parvovirus (CPV) type 2). Kind of assay: proximity ligation; PLA (Duolink In Situ Orange Mouse/Rabbit) in wt CPV-infected NLFK cells, fixed 24 h after infection; anti-NS2 antibody paired with an antibody against the host protein; nuclear PLA foci counted from 3D confocal data, n = 15.
For assay [2], the target named is NS2-EGFP (canine parvovirus nonstructural protein 2 fused to EGFP) (canine parvovirus (CPV) type 2). In words: proximity ligation; PLA (Duolink In Situ Orange Mouse/Rabbit) in noninfected HeLa cells transfected with NS2-EGFP, fixed 20 h after transfection; anti-GFP paired with an antibody against the host protein; nuclear PLA foci counted from 3D confocal data, n = 15.

With “MDC1 of NLFK (feline kidney) cells (natural protein)”, the PLA foci/nucleus (PLA foci/nucleus) in assay [1] worked out at 22.

Turning to “SMARCA5 of NLFK (feline kidney) cells (natural protein)”, the PLA foci/nucleus (PLA foci/nucleus) in assay [1] turned out to be 6.5. Substance “SSRP1 of NLFK (feline kidney) cells (natural protein)” had a PLA foci/nucleus (PLA foci/nucleus) in assay [1] of 3.7. As for “core histone macro-H2A.1 (from UniProt O75367 1-369) (natural protein)”, the PLA foci/nucleus (PLA foci/nucleus) in assay [2] is 135. For the substance “macro-H2A.1 of NLFK (feline kidney) cells (natural protein)”, the PLA foci/nucleus (PLA foci/nucleus) in assay [1] stood at 40. Substance “nucleosome-remodeling helicase matrix-associated actin-dependent regulator of chromatin A5 (from UniProt O60264 1-1052) (natural protein)” gave a PLA foci/nucleus (PLA foci/nucleus) in assay [2] of 55. “structure specific recognition protein SSRP1 (FACT complex subunit) (from UniProt Q08945 1-709) (natural protein)” gave a PLA foci/nucleus (PLA foci/nucleus) in assay [2] of 7.5.
